B1: Catenin beta-1 (Homo sapiens), P35222 (parent)
chain: MATQADLMELDMAMEPDRKAAVSHWQQQSYLDSGIHSGATTTAPSLSGKGNPEEEDVDTSQVLYEWEQGFSQSFTQEQVADIDGQYAMTRAQRVRAAMFPETLDEGMQIPSTQFDAAHPTNVQRLAEPSQMLKHAVVNLINYQDDAELATRAIPELTKLLNDEDQVVVNKAAVMVHQLSKKEASRHAIMRSPQMVSAIVRTMQNTNDVETARCTAGTLHNLSHHREGLLAIFKSGGIPALVKMLGSPVDSVLFYAITTLHNLLLHQEGAKMAVRLAGGLQKMVALLNKTNVKFLAITTDCLQILAYGNQESKLIILASGGPQALVNIMRTYTYEKLLWTTSRVLKVLSVCSSNKPAIVEAGGMQALGLHLTDPSQRLVQNCLWTLRNLSDAATKQEGMEGLLGTLVQLLGSDDINVVTCAAGILSNLTCNNYKNKMMVCQVGGIEALVRTVLRAGDREDITEPAICALRHLTSRHQEAEMAQNAVRLHYGLPVVVKLLHPPSHWPLIKATVGLIRNLALCPANHAPLREQGAIPRLVQLLVRAHQDTQRRTSMGGTQQQFVEGVRMEEIVEGCTGALHILARDVHNRIVIRGLNTIPLFVQLLYSPIENIQRVAAGVLCELAQDKEAAEAIEAEGATAPLTELLHSRNEGVATYAAAVLFRMSEDKPQDYKKRLSVELTSSLFRTEPMAWNETADLGLDIGAQGEPLGYRQDDPSYRSFHSGGYGQDALGMDPMMEHEMGGHHPGADYPVDGLPDLGHAQDLMDGLPPGDSNQLAWFDTDL

Variants of: B1
Conditions: with axin1_human AXIN1, O15169
Chain of axin1_human AXIN1, O15169 (O15169 whole entry): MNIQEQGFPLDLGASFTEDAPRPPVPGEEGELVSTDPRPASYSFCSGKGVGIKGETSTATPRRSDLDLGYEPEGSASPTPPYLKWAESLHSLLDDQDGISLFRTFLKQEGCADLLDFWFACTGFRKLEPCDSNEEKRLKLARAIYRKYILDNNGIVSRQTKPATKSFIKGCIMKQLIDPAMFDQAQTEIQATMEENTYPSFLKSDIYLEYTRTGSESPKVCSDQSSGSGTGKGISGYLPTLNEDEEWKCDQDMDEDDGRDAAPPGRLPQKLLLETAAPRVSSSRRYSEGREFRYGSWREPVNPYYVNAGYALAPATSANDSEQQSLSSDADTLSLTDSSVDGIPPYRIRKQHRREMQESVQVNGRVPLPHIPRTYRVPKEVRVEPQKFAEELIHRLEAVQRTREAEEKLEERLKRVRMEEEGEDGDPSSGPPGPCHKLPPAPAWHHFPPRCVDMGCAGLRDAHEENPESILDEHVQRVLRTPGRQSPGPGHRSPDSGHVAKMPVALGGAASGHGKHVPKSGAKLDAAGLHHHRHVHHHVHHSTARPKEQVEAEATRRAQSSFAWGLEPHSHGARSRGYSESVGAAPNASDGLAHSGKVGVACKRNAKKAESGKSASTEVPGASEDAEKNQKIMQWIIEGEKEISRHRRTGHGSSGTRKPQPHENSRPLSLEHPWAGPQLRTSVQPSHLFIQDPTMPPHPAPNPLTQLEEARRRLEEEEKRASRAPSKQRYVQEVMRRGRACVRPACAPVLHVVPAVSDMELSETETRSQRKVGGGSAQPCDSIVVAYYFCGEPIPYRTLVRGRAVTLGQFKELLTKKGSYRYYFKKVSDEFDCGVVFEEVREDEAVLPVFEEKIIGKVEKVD

Variant	effect of a mutation on the interaction
Y142F	disrupting interaction
Y654F	decreasing interaction
